Measurements from patent US20210040161A1 (CALIFORNIA INSTITUTE OF TECHNOLOGY, published 2021).

How the values were obtained:
[1] = target: T1, TlpA_CC R179E (G1B); assay: CD melting curve at 222 nm, purified coiled-coil domains, 3 uM in PBS
T1 construct: Purified coiled-coil domain of TlpA used for CD; The entry already holds the initiating Met, the R179E mutation (numbered on full-length TlpA), C-terminal Leu-Gly and a His6 tag; also called TlpA-G1B (R179E); R179E variant
T1 chain: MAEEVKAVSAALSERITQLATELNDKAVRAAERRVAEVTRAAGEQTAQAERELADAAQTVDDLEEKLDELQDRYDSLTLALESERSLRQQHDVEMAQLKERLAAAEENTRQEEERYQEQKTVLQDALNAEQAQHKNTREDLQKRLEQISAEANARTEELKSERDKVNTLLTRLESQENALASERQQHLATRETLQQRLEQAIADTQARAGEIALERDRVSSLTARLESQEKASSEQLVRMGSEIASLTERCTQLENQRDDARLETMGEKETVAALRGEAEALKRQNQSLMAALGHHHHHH

[2] = target: the molecule itself; assay: CuCl2 crosslinking in E. coli lysate, SDS-PAGE, anti-HA Western; full-length homodimer band

B1: TlpA_CC E180R (G1A) (designed binder)
chain: MAEEVKAVSAALSERITQLATELNDKAVRAAERRVAEVTRAAGEQTAQAERELADAAQTVDDLEEKLDELQDRYDSLTLALESERSLRQQHDVEMAQLKERLAAAEENTRQRRERYQEQKTVLQDALNAEQAQHKNTREDLQKRLEQISAEANARTEELKSERDKVNTLLTRLESQENALASERQQHLATRETLQQRLEQAIADTQARAGEIALERDRVSSLTARLESQEKASSEQLVRMGSEIASLTERCTQLENQRDDARLETMGEKETVAALRGEAEALKRQNQSLMAALGHHHHHH
notes: Purified coiled-coil domain of TlpA used for CD; The entry already holds the initiating Met, the E180R mutation (numbered on full-length TlpA), C-terminal Leu-Gly and a His6 tag; also called TlpA-G1A (E180R); E180R variant
[1]
  binding result: binds

B2: wild-type TlpA, full length, C-terminal HA tag (crosslinking construct) (other)
chain: MRPATYEPEQIIEAGLALQAEGRNITGFALRNQVGGGNPTRLRQIWDEYQASQSTVVTEPVAELPVEVAEEVKAVSAALSERITQLATELNDKAVRAAERRVAEVTRAAGEQTAQAERELADAAQTVDDLEEKLDELQDRYDSLTLALESERSLRQQHDVEMAQLKERLAAAEENTRQREERYQEQKTVLQDALNAEQAQHKNTREDLQKRLEQISAEANARTEELKSERDKVNTLLTRLESQENALASERQQHLATRETLQQRLEQAIADTQARAGEIALERDRVSSLTARLESQEKASSEQLVRMGSEIASLTERCTQLENQRDDARLETMGEKETVAALRGEAEALKRQNQSLMAALSGNKQTGGQNA
notes: also called wt; not shown: C-terminal HA tag
[2]
  binding result: binds
